Laboratory results as given in paper PMC9296673, “Conformational landscape of the yeast SAGA complex as revealed by cryo-EM” (Scientific Reports, 2022).

B1: Taf12 (natural protein, S. cerevisiae, UniProt Q03761 1-539, looked up)
chain: MSSNPENSGVNANNNTGTGNADAITGAQQNMVLQPRQLQEMAAKFRTLLTEARNVGETTPRGKELMFQAAKIKQVYDALTLNRRRQQAAQAYNNTSNSNSSNPASIPTENVPNSSQQQQQQQQQTRNNSNKFSNMIKQVLTPEENQEYEKLWQNFQVRHTSIKEKETYLKQNIDRLEQEINKQTDEGPKQQLQEKKIELLNDWKVLKIEYTKLFNNYQNSKKTFYVECARHNPALHKFLQESTQQQRVQQQRVQQQQQQQQQQQQQQQQQQQQQQQRQGQNQRKISSSNSTEIPSVTGPDALKSQQQQQNTITATNNPRGNVNTSQTEQSKAKVTNVNATASMLNNISSSKSAIFKQTEPAIPISENISTKTPAPVAYRSNRPTITGGSAMNASALNTPATTKLPPYEMDTQRVMSKRKLRELVKTVGIDEGDGETVIDGDVEELLLDLADDFVTNVTAFSCRLAKHRKSDNLEARDIQLHLERNWNIRIPGYSADEIRSTRKWNPSQNYNQKLQSITSDKVAAAKNNGNNVASLNTKK
notes: Taf12, S. cerevisiae, subunit of the SAGA core module, endogenous subunit of the purified native complex; Subunit of native SAGA purified through a 3xFLAG tag; The complex was mildly cross-linked with glutaraldehyde (GraFix) before cryo-EM; also called Taf12 core subunit; source: endogenous, S. cerevisiae, purified as part of native SAGA (anti-FLAG M2 resin, FLAG peptide elution, GraFix)
B2: Spt20 (natural protein, S. cerevisiae, UniProt P50875 1-604, looked up)
chain: MSANSPTGNDPHVFGIPVNATPSNMGSPGSPVNVPPPMNPAVANVNHPVMRTNSNSNANEGTRTLTREQIQQLQQRQRLLLQQRLLEQQRKQQALQNYEAQFYQMLMTLNKRPKRLYNFVEDADSILKKYEQYLHSFEFHIYENNYKICAPANSRLQQQQKQPELTSDGLILTKNNETLKEFLEYVARGRIPDAIMEVLRDCNIQFYEGNLILQVYDHTNTVDVTPKENKPNLNSSSSPSNNNSTQDNSKIQQPSEPNSGVANTGANTANKKASFKRPRVYRTLLKPNDLTTYYDMMSYADNARFSDSIYQQFESEILTLTKRNLSLSVPLNPYEHRDMLEETAFSEPHWDSEKKSFIHEHRAESTREGTKGVVGHIEERDEFPQHSSNYEQLMLIMNERTTTITNSTFAVSLTKNAMEIASSSSNGVRGASSSTSNSASNTRNNSLANGNQVALAAAAAAAAVGSTMGNDNNQFSRLKFIEQWRINKEKRKQQALSANINPTPFNARISMTAPLTPQQQLLQRQQQALEQQQNGGAMKNANKRSGNNATSNNNNNNNNLDKPKVKRPRKNAKKSESGTPAPKKKRMTKKKQSASSTPSSTTMS
notes: Spt20, S. cerevisiae, subunit of the SAGA core module, endogenous subunit of the purified native complex; Subunit of native SAGA purified through a 3xFLAG tag; The complex was mildly cross-linked with glutaraldehyde (GraFix) before cryo-EM; also called Spt20 core subunit; source: endogenous, S. cerevisiae, purified as part of native SAGA (anti-FLAG M2 resin, FLAG peptide elution, GraFix)

Target: T1, Tra1 (S. cerevisiae, UniProt P38811 1-3744)
T1 construct: Tra1, S. cerevisiae, largest subunit of SAGA (433 kDa), endogenous subunit of the purified native complex; Subunit of native SAGA purified through a 3xFLAG tag; The complex was mildly cross-linked with glutaraldehyde (GraFix) before cryo-EM; also called Tra1 module; head; source: endogenous, S. cerevisiae, purified as part of native SAGA (anti-FLAG M2 resin, FLAG peptide elution, GraFix)
Experiment: cryo-EM structure; native S. cerevisiae SAGA purified by anti-FLAG and GraFix (glycerol/glutaraldehyde gradient), 40 mM HEPES pH 7.4, 150 mM NaCl, 0.01% Tween-20, vitrified on lacey carbon grids with graphene oxide; consensus map 3.1 Å, Tra1 2.9 Å, core 3.2 Å; published models (PDB 6t9j, 6t9k) fitted into the map
Details: both partners purified

T1 sequence (P38811 whole entry): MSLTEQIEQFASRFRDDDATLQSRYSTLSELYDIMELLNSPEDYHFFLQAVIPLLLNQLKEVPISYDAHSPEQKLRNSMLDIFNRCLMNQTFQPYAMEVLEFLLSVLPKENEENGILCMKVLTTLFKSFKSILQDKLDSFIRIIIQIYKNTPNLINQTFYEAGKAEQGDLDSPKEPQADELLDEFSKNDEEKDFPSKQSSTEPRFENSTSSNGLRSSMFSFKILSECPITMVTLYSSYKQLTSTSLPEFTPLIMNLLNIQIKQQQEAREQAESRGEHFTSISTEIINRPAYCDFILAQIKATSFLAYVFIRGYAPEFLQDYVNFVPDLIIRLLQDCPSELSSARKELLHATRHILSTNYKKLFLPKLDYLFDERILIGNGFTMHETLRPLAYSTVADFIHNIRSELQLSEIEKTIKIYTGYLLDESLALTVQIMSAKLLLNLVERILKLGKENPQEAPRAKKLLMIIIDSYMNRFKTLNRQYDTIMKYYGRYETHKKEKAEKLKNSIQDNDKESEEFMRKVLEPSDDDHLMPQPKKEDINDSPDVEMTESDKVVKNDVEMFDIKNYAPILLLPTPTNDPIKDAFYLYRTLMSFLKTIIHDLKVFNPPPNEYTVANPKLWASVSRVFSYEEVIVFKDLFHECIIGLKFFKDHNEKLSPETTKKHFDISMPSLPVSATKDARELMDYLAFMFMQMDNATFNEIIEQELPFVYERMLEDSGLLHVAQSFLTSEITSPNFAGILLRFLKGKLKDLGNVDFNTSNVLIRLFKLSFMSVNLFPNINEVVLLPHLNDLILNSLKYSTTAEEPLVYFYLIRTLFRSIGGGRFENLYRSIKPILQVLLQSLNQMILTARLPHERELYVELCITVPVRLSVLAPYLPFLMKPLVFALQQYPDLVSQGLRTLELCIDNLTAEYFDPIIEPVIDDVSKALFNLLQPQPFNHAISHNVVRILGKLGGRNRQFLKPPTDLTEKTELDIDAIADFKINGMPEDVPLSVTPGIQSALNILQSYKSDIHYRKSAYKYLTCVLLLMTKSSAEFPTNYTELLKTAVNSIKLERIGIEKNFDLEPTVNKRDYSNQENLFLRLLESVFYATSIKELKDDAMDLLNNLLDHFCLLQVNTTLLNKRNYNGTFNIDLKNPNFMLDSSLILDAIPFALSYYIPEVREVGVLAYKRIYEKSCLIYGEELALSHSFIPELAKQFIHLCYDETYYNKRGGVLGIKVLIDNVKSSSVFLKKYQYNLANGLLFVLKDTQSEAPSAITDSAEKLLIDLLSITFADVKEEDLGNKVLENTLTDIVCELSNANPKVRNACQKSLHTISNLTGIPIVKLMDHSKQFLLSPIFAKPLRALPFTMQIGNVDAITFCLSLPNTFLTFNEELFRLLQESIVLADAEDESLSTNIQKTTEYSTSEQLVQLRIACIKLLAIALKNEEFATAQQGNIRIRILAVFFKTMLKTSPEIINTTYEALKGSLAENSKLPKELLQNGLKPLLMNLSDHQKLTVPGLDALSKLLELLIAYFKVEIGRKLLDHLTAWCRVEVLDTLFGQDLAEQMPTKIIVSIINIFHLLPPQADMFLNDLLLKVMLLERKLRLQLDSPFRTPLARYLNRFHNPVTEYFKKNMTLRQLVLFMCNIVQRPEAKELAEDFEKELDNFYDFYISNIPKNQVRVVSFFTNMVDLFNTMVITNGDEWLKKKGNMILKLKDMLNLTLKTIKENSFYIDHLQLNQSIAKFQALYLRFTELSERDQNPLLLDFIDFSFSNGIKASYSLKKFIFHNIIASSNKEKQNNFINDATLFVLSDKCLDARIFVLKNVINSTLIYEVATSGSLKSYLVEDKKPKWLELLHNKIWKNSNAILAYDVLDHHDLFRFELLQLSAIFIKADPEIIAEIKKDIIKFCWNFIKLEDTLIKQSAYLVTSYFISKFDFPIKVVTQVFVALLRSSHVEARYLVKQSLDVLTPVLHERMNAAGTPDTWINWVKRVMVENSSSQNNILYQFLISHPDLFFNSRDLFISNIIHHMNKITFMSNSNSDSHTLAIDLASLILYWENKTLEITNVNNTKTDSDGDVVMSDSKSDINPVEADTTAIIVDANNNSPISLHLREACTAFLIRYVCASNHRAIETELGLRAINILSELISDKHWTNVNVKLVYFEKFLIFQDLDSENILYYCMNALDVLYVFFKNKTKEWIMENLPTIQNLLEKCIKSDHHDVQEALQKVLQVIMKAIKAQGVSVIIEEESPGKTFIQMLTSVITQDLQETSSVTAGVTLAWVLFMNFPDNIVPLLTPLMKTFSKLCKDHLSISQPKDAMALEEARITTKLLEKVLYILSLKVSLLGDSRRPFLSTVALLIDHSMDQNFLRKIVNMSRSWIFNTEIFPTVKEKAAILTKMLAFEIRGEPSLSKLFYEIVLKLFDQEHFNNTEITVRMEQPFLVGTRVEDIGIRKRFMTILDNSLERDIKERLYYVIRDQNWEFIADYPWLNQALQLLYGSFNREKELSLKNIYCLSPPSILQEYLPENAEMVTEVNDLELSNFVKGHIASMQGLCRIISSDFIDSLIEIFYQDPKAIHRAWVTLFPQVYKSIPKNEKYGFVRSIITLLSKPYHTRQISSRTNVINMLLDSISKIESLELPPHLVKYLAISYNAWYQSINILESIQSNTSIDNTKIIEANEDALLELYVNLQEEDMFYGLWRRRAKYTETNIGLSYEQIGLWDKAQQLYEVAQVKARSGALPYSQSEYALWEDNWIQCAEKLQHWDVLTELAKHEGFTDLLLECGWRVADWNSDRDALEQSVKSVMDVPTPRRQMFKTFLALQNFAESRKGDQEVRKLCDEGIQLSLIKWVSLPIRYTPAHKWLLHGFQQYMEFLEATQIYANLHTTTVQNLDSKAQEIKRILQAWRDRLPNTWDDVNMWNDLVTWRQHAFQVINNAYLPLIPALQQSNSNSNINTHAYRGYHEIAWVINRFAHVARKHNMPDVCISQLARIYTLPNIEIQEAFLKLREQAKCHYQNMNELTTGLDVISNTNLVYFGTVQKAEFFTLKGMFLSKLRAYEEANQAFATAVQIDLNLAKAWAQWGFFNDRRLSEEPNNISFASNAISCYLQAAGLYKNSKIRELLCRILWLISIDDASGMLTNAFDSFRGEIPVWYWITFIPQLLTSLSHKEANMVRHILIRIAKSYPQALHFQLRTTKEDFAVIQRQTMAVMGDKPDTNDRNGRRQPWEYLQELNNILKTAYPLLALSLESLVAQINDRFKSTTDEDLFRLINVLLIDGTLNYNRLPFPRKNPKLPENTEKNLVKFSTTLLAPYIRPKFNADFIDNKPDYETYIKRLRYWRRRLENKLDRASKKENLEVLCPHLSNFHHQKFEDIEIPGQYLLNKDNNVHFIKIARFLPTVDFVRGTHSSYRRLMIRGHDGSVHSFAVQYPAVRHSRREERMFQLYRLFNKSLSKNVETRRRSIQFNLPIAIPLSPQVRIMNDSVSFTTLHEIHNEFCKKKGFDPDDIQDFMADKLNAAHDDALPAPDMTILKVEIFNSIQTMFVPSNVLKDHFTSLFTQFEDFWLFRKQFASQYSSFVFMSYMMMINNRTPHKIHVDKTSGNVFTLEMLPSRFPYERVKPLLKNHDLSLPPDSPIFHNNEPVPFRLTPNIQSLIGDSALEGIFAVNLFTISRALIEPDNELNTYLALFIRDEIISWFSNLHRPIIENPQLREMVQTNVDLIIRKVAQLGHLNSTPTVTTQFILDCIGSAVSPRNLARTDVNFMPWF

Row | Binder | binding result
1 | B1 | binds
2 | B2 | binds
